The results in this text go back to patent US20220153832A1 (PIONYR IMMUNOTHERAPEUTICS, published 2022).

The target in test [1] is T1, Mouse MARCO, full length, on cells (mouse, UniProt Q60754 1-518).
T1 construct: whole, on cells; the cell type is named under assay; also called muMARCO; MuMARCO
T1 sequence (looked up): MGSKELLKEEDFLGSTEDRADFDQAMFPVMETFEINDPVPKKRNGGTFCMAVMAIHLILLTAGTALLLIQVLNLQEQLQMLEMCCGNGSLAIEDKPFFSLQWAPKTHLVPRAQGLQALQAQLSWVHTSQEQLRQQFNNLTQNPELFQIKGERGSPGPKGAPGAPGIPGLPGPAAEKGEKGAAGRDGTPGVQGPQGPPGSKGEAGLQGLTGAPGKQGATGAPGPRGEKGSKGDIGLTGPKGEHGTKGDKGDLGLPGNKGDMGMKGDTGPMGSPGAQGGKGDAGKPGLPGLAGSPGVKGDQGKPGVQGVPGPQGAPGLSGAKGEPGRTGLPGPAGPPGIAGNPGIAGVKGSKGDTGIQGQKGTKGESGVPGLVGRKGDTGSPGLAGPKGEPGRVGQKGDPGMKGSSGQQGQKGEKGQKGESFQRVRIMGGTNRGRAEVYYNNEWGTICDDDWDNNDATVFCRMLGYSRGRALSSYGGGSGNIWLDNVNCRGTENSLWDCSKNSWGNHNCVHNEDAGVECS
In words: flow cytometry, 293T (muMARCO).

For a further test, the target named is T2, mVar3 (RG3028) (mouse, UniProt Q60754 150-518).
T2 construct: Mouse MARCO with the human residues Q452, Y472 and K473 (already in the entry)
T2 chain: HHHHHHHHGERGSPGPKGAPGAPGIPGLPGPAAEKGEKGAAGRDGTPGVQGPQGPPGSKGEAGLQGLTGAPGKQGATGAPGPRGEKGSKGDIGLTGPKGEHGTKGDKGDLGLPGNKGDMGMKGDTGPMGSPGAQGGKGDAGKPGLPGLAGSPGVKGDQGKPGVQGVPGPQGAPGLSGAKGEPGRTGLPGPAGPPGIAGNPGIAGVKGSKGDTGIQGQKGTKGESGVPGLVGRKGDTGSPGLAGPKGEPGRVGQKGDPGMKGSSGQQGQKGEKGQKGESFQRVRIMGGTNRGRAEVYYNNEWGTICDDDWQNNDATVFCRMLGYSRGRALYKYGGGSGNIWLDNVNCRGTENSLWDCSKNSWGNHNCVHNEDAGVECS
In words: binding to variant proteins, data not shown. A digest of the protocol:
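Binding to MARCO variant proteins was measured by biolayer interferometry at 37° C in ProbeLife kinetics buffer. Antibodies (200 nM) were captured on anti-mouse or anti-human Fc probes for 120 s between 60 s baselines. This was followed by association with 200 nM variant antigen and 5-10 minutes dissociation.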

The target of test [2] is T3, N-terminally polyhistidine tagged human MARCO ECD (147-520), recombinant (human, UniProt Q9UEW3 147-520).
T3 construct: also called PI-RG-3000; recombinant human MARCO; not shown: N-terminal polyhistidine tag
T3 sequence: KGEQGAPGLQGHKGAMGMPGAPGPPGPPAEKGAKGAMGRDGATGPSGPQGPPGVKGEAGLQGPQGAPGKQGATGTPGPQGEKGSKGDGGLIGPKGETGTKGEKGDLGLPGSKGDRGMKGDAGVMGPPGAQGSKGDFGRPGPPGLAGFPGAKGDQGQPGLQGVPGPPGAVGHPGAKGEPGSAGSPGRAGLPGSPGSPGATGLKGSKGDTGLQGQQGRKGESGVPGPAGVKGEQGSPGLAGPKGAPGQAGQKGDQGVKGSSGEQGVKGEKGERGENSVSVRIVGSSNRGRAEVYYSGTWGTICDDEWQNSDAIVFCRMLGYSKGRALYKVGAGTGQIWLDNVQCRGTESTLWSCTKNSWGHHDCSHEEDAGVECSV
Put plainly: Biacore (SPR), recombinant human MARCO. A digest of the protocol:
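On a CM4 chip, anti-mouse Fc mAb was amine-coupled to a 4500 RU target and used to capture the antibodies. Their binding kinetics and affinity for N-terminally His-tagged human MARCO extracellular domain (147-520) were then measured by multi-cycle surface plasmon resonance on a Biacore T200. This was done at 25° C in 10 mM HEPES pH 7.4, 150 mM NaCl, 3 mM EDTA, 0.05% surfactant P20, with 0.625–10 nM injections, 90 s association and 600 s dissociation, and fitting in BIAevaluation 3.1.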
(SPR reads the build-up and loss of mass on a sensor chip optically.)

Test [3] deals with T3, N-terminally polyhistidine tagged human …. Put plainly: Biacore; isomerization/fragmentation stress sample.
For test [4] the target is unchanged. Put plainly: Biacore; oxidation stress sample (1 mM AAPH, 6 hrs).
For test [5] the target is unchanged. Put plainly: Biacore; sample oxidized with 0.5% H2O2 (24 hr, RT). As for the experimental part: (PBS)+1 mM AAPH for 6 h, 0.5 and 1.5% H₂O₂ in PBS for 24 h, which was compared to a previous experiment at 40° C. (PBS)+1 mM AAPH for 6 h. Post treatment the samples were analyzed by LC-MS/MS which identified the % modification on isolated peptides derived from the antibody after trypsin digest.
Binding of the stressed samples to recombinant human MARCO was assessed by Biacore.

B1: PI-HX-3061 (antibody, rat IgG2a)
heavy: EVQLVESGGGLVQPGSSLKLSCVASKFTFSNYGMNWIRQAPKKGLEWIALIYYNSNNKYYADSVKGRFTISRDNSKNTLYLEMNSLRSEDTAMYYCAKSLTGGSDYFDSWGQGVMVTVSSAETTAPSVYPLAPGTALKSNSMVTLGCLVKGYFPEPVTVTWNSGALSSGVHTFPAVLQSGLYTLTSSVTVPSSTWPSQTVTCNVAHPASSTKVDKKIVPRNCGGDCKPCICTGSEVSSVFIFPPKPKDVLTITLTPKVTCVVVDISQDDPEVHFSWFVDDVEVHTAQTRPPEEQFNSTFRSVSELPILHQDWLNGRTFRCKVTSAAFPSPIEKTISKPEGRTQVPHVYTMSPTKEEMTQNEVSITCMVKGFYPPDIYVEWQMNGQPQENYKNTPPTMDTDGSYFLYSKLNVKKEKWQQGNTFTCSVLHEGLHNHHTEKSLSHSP
light: DVQMTQSPSYLAASPGESVSISCKASKSIGTFLAWYQEKPEKTNKLLIYSGSTLQSGTPSRFSGSGSGTDFTLTIRNLEPEDFAVYYCQQHDEYPFTFGSGTKLEIKRADAAPTVSIFPPSTEQLATGGASVVCLMNNFYPRDISVKWKIDGTERRDGVLDSVTDQDSKDSTYSMSSTLSLTKADYESHNLYTCEVVHKTSSSPVVKSFNRNEC
notes: Parental rat hybridoma, rat IgG2a; cross reactive with human and mouse MARCO
Take B1: the EC50 in test [1] was determined as 2.53 nM.

B2: PI-3010-AB (antibody, human IgG1, kappa)
heavy: not shown
light: DIQMTQSPASLSTSLGETVSIECLASEGISNDLAWYQQKSGKSPQLLIYAASRLQDGVPSRFSGSGSGTRYSLKISGMQPEDEADYFCQQSYKYPLTFGSGTKLEIKRTVAAPSVFIFPPSDEQLKSGTASVVCLLNNFYPREAKVQWKVDNALQSGNSQESVTEQDSKDSTYSLSSTLTLSKADYEKHKVYACEVTHQGLSSPVTKSFNRGEC
On to B2, for which the binding result with mVar3 (RG3028) is given as “binds”.

B3: PI-3015-AB (antibody, human IgG1, kappa)
heavy: not shown
light: DIQMTQSPSSLSASVGDRVTITCRASEGISNDLAWYQQKPGKAPKLLIYAASRLQSGVPSRFSGSGSGTDYTLTISSMQPEDFATYYCQQSYKYPLTFGQGTKLEIKRTVAAPSVFIFPPSDEQLKSGTASVVCLLNNFYPREAKVQWKVDNALQSGNSQESVTEQDSKDSTYSLSSTLTLSKADYEKHKVYACEVTHQGLSSPVTKSFNRGEC
As to B3, the Kd in test [2] came to 0.51 nM; in test [3], 1.24 nM; in test [4] it was 1.29 nM; in test [5], 1.05 nM. The koff in test [2] is 0.000294 s⁻¹.

Broadly, the EC50 is the concentration needed to bring the measured effect to its halfway point. Low values mean a more potent agent, high ones a less potent agent. In general, Kd refers to the equilibrium constant for the complex coming apart. Usually koff stands for the first-order rate constant of dissociation.
